Reference: paper PMC4538381, “Activation of Relaxin Family Receptor 1 from Different Mammalian Species by Relaxin Peptide and Small-Molecule Agonist ML290” (Frontiers in Endocrinology, 2015)
“Also recorded” adds a separate entry of the source.

Columns and labels:
[1] = test system: R1-RXFP1 and R2-RXFP1; assay: Direct HTRF cAMP assay, rabbit R1-RXFP1 and R2-RXFP1; assay type: cell-based, European rabbit (Oryctolagus cuniculus); settings: HTRF
Description: The human, mouse, macaque, and pig RXFP1 cDNA constructs in baculovirus BacMam mammalian expression vector (Invitrogen, Carlsbad, CA, USA) were synthesized at the Eukaryotic Expression Group-Protein Expression laboratory (NCI, Frederick, MD, USA). The PCR primers for RT-PCR were designed to cover the full-length sequence of the open reading frame (ORF). PCR amplifications were performed with PfuUltra High-Fidelity DNA polymerase (Agilent Technologies, Santa Clara, CA, USA). Guinea pig RXFP1 (G-RXFP1) was amplified from guinea pig ovarian cDNA (Zyagen, San Diego, CA, USA). Rabbit RXFP1 (R1-RXFP1 and R2-RXFP1) cDNAs were amplified from rabbit uterus cDNA (Zyagen). All cloning was performed using the In-Fusion® HD Cloning Kit (Clontech Laboratories, Mountain View, CA, USA). Rabbit and guinea pig RXFP1s were cloned into pCR3.1 mammalian expression vector (Invitrogen). In order to study RXFP1 surface expression, rabbit cDNAs were cloned into pcDNA3.1™/Zeo+ mammalian expression vector (Invitrogen), which contained an N-terminal FLAG-tag and a bovine prolactin signal sequence (3). […] To make chimeric clones, the human, guinea pig, and rabbit plasmid were used as templates to produce PCR amplicons, which were then used for overlapping PCR and subsequent cloning with the In-Fusion kit. The chimeric guinea pig/human GH-RXFP1 construct contains guinea pig RXFP1 cDNA (G-RXFP1, 1–1499 bp) encoding the ectodomain, TM1, TM2, and part of TM3 (amino acids 1–499 of G-RXFP1), and human RXFP1 (hRXFP1, 1509–2274 bp) encoding TM3 to the C-terminal tail of the receptor (amino acids 503–757 of hRXFP1) (Figure 1A). The recombinant chimeric human–rabbit HR-RXFP1 was made with the 5′-part of the hRXFP1 sequence (1–972 bp, LDLa-LRR9, 1–324 aa), with the remainder being the rabbit RXFP1 sequence (973–2277 bp, LRR9-C-terminal tail, 325–759 aa) (Figure 1A). The recombinant chimeric rabbit–human R1H-RXFP1 or R2H-RXFP1 contains the N-terminal rabbit RXFP1 sequence (1–972 bp for R1-RXFP1 or 975 bp for R2-RXFP1), with the remaining sequence being hRXFP1 (973–2274) (Figure 1A). R1- and R2-RXFP1 denote two variants of rabbit RXFP1 cDNA. All numbers correspond to the full-length cDNAs with the first nucleotide of the ORF.
(§1) HEK293T cell transient transfections were performed using Lipofectamine 2000 transfection reagent (Life Technologies, Grand Island, NY, USA) according to the manufacturer’s instructions. Cells transiently expressing the RXFP1 receptors were used within 48 h of transfection. Each construct was tested at least three times. For cell-conditioned media stimulation, HEK293T cells were transfected with the rabbit RLN construct (SQ10) or an empty pCR3.1 vector, and cells were cultured for 24 h. The media was used to stimulate HEK293T cells transfected with the RXFP1 receptors.
(§2) Direct measurement of cAMP production was performed using the HTRF cAMP HiRange kit (CisBio, Bedford, MA, USA). HEK293T cells transiently transfected with different RXFP1 receptors were stimulated with various concentrations of RLN peptides or ML290 for 60 min at 37°C, 5% CO2, after which, two HTRF detection reagents (diluted according to assay kit directions in HTRF lysis buffer) were added. The plates were incubated for 60 min at room temperature, and the signal was read on a FLUOstar Omega (BMG Labtech, Cary, NC, USA) plate reader. cAMP levels were calculated according to the manufacturer’s instructions against a standard curve. Statistical processing of the data was performed using GraphPad Prism software.

[2] = test system: hRXFP1; assay: Direct HTRF cAMP assay, hRXFP1; assay type: cell-based, human; settings: conditioned media from SQ10-transfected HEK293T cells, % of 10 μM Forskolin
Description: as §1, §2

[3] = test system: G-RXFP1; assay: Direct HTRF cAMP assay, guinea pig G-RXFP1; assay type: cell-based, guinea pig (Cavia porcellus); settings: conditioned media from SQ10-transfected HEK293T cells, % of 10 μM Forskolin
Description: The human, mouse, macaque, and pig RXFP1 cDNA constructs in baculovirus BacMam mammalian expression vector (Invitrogen, Carlsbad, CA, USA) were synthesized at the Eukaryotic Expression Group-Protein Expression laboratory (NCI, Frederick, MD, USA). The PCR primers for RT-PCR were designed to cover the full-length sequence of the open reading frame (ORF). PCR amplifications were performed with PfuUltra High-Fidelity DNA polymerase (Agilent Technologies, Santa Clara, CA, USA). Guinea pig RXFP1 (G-RXFP1) was amplified from guinea pig ovarian cDNA (Zyagen, San Diego, CA, USA). Rabbit RXFP1 (R1-RXFP1 and R2-RXFP1) cDNAs were amplified from rabbit uterus cDNA (Zyagen). All cloning was performed using the In-Fusion® HD Cloning Kit (Clontech Laboratories, Mountain View, CA, USA). Rabbit and guinea pig RXFP1s were cloned into pCR3.1 mammalian expression vector (Invitrogen). […]
Direct measurement of cAMP production was performed using the HTRF cAMP HiRange kit (CisBio, Bedford, MA, USA). […] The plates were incubated for 60 min at room temperature, and the signal was read on a FLUOstar Omega (BMG Labtech, Cary, NC, USA) plate reader. cAMP levels were calculated according to the manufacturer’s instructions against a standard curve. […]

B1: SQ10: rabbit RLN expressed from SQ10 cDNA in HEK293T cells, used as conditioned medium (protein)
chain: RVTYEWMMENVKICRNDFVRTAIEVCGHVHLERESPSPENPFLSSGPAAETVPSSIKKDAENANTMLESIPNLPQELTATLFEKQPSKLYLQYLPTLKKSNVSFEEFKKIIQNIQRGVQGSSASESNTFSRKKRQFSESLPEECCKYGCPRYYLLMYC
B1 was tested, and the “cAMP response to SQ10 conditioned medium” value ([1]; R1- or R2-RXFP1, conditioned media from SQ10-transfected HEK293T cells, % of 10 μM Forskolin) was “No response was recorded; also recorded: Neither of the two rabbit RXFP1 variants responded”, the “statistical significance of response versus hRXFP1 or G-RXFP1” value ([1]; R1-RXFP1, SQ10 conditioned media) was “statistically significant (p < 0.0001) compared to hRXFP1 or G-RXFP1” and the “cAMP response to SQ10 conditioned medium” value [2] was “responded to SQ10 treatment with cAMP production; also recorded: activated human and guinea pig receptors and thus was fully functional”. For the same molecule, the “cAMP response to SQ10 conditioned medium” value [3] was “responded to SQ10 treatment with cAMP production; also recorded: activated human and guinea pig receptors and thus was fully functional”.
